The nature of data set [1]: cell surface ELISA, HA tag, CHO. As to conditions: glycan lost.
A short description of data set [2]: cell surface biotinylation, western blot. To be noted: glycan lost; control: wild type GIPR-V5. (A western blot detects proteins with antibodies after separation by electrophoresis.)

B1: GLP-1R (GLP1R): N63Q (protein)
parent chain: MAGAPGPLRLALLLLGMVGRAGPRPQGATVSLWETVQKWREYRRQCQRSLTEDPPPATDLFCNRTFDEYACWPDGEPGSFVNVSCPWYLPWASSVPQGHVYRFCTAEGLWLQKDNSSLPWRDLSECEESKRGERSSPEEQLLFLYIIYTVGYALSFSALVIASAILLGFRHLHCTRNYIHLNLFASFILRALSVFIKDAALKWMYSTAAQQHQWDGLLSYQDSLSCRLVFLLMQYCVAANYYWLLVEGVYLYTLLAFSVLSEQWIFRLYVSIGWGVPLLFVVPWGIVKYLYEDEGCWTRNSNMNYWLIIRLPILFAIGVNFLIFVRVICIVVSKLKANLMCKTDIKCRLAKSTLTLIPLLGTHEVIFAFVMDEHARGTLRFIKLFTELSFTSFQGLMVAILYCFVNNEVQLEFRKSWERWRLEHLHIQRDSSMKPLKCPTSSLSSGATAGSSMYTATCQASCS
As to B1, in data set [1] (control: wild type HA-GLP-1R), the localisation_or_trafficking result is “no change”.

B2: GLP-1R (GLP1R): N82Q (protein)
parent chain: MAGAPGPLRLALLLLGMVGRAGPRPQGATVSLWETVQKWREYRRQCQRSLTEDPPPATDLFCNRTFDEYACWPDGEPGSFVNVSCPWYLPWASSVPQGHVYRFCTAEGLWLQKDNSSLPWRDLSECEESKRGERSSPEEQLLFLYIIYTVGYALSFSALVIASAILLGFRHLHCTRNYIHLNLFASFILRALSVFIKDAALKWMYSTAAQQHQWDGLLSYQDSLSCRLVFLLMQYCVAANYYWLLVEGVYLYTLLAFSVLSEQWIFRLYVSIGWGVPLLFVVPWGIVKYLYEDEGCWTRNSNMNYWLIIRLPILFAIGVNFLIFVRVICIVVSKLKANLMCKTDIKCRLAKSTLTLIPLLGTHEVIFAFVMDEHARGTLRFIKLFTELSFTSFQGLMVAILYCFVNNEVQLEFRKSWERWRLEHLHIQRDSSMKPLKCPTSSLSSGATAGSSMYTATCQASCS
Turning to B2, the localisation_or_trafficking result in data set [1] (control: wild type HA-GLP-1R) is “no change”.

B3: GLP-1R (GLP1R): N115Q (protein)
parent chain: MAGAPGPLRLALLLLGMVGRAGPRPQGATVSLWETVQKWREYRRQCQRSLTEDPPPATDLFCNRTFDEYACWPDGEPGSFVNVSCPWYLPWASSVPQGHVYRFCTAEGLWLQKDNSSLPWRDLSECEESKRGERSSPEEQLLFLYIIYTVGYALSFSALVIASAILLGFRHLHCTRNYIHLNLFASFILRALSVFIKDAALKWMYSTAAQQHQWDGLLSYQDSLSCRLVFLLMQYCVAANYYWLLVEGVYLYTLLAFSVLSEQWIFRLYVSIGWGVPLLFVVPWGIVKYLYEDEGCWTRNSNMNYWLIIRLPILFAIGVNFLIFVRVICIVVSKLKANLMCKTDIKCRLAKSTLTLIPLLGTHEVIFAFVMDEHARGTLRFIKLFTELSFTSFQGLMVAILYCFVNNEVQLEFRKSWERWRLEHLHIQRDSSMKPLKCPTSSLSSGATAGSSMYTATCQASCS
For the protein B3, the localisation_or_trafficking entry in data set [1] (control: wild type HA-GLP-1R) is “no change”.

B4: GIPR (GIP receptor): N62Q (protein)
parent chain: MTTSPILQLLLRLSLCGLLLQRAETGSKGQTAGELYQRWERYRRECQETLAAAEPPSGLACNGSFDMYVCWDYAAPNATARASCPWYLPWHHHVAAGFVLRQCGSDGQWGLWRDHTQCENPEKNEAFLDQRLILERLQVMYTVGYSLSLATLLLALLILSLFRRLHCTRNYIHINLFTSFMLRAAAILSRDRLLPRPGPYLGDQALALWNQALAACRTAQIVTQYCVGANYTWLLVEGVYLHSLLVLVGGSEEGHFRYYLLLGWGAPALFVIPWVIVRYLYENTQCWERNEVKAIWWIIRTPILMTILINFLIFIRILGILLSKLRTRQMRCRDYRLRLARSTLTLVPLLGVHEVVFAPVTEEQARGALRFAKLGFEIFLSSFQGFLVSVLYCFINKEVQSEIRRGWHHCRLRRSLGEEQRQLPERAFRALPSGSGPGEVPTSRGLSSGTLPGPGNEASRELESYC
In the case of B4, the localisation_or_trafficking result in data set [1] (control: wild type HA-GIPR) and in data set [2] was “decreases” each time.

The values are drawn from article PMC3296735.
